The record followed here is patent publication US20240026407A1, “MODIFICATION OF SAPONINS” (GLAXOSMITHKLINE BIOLOGICALS SA, priority 2020, published 2024).

To fix the notation:
B1: 829 (protein, listed as Pseudonocardia sp.)
chain: MATVDEDLLTTLIARLDLDAKVRLLTGADFWSTPAEPAIGLRRMVLSDGPSGVRGESFDERSPSLSLPSSTALGATWDPELARRYGSTLGAEARRQHADVVLGPTINLHRTPFGGRHFEALSEDPLLTGELAAAYVEGLQAHGVAATPKHYVANDAESERFTVDNVVGERALHELYLAAFEPAVTRGGAWAVMSAYNAVNGATMSENPLLTEPLTGEWGFDGLVMSDWGAVRTTVASARAEQHLVMPGPVSTWGERLVAAVRGGEVDESVVDGKLRRLLRLAARVGALDGGPTPPPAPAPGDGATVARELAAAGSVLVRNTGELPWDASALGTVAVLGHNAALARTQGGGSATVRPAAVVAPLDGLRTALGGDRVRYRLGAQVAEGVQPFDPETVTDPVTGEPGLRAVFRAADGTALRSEHRLGASLIWMSGEIPGGAETVEVSTRWSPEPGAHRIGAAAVGHVTVSADGATVLDTEAVLTGDEGPGAAIFEAPSATAEITTDAPVDLVFRFRPSGGEAGMALFALTVGTETVVADPRAEVAAAASLAADCDVAVVVVGTNDRIESEGFDRTSLALPGHQDDLVRAVAAANPRTVVVVNSGAPVLLPWRDEVAAVLLGWFGGERFGDAVADVLLGHAEPGGRLPTTWPATGEERSVLSGRPTDGVLRYDEGVHLGHRNWLRHGETPAYPFGHGLGYTTWTLDDAVAGPWSADGVAVTVTLTNTGDRAGRQVVQAYLSRTGSDVERPARWLAGWAVVDAAPGTTTATVTVSRRAFRHRAGGVWATEPGTYELHLGFSVADTPLHATVEVVGEG
B2: 886 (protein, listed as Brachyspira suanatina)
chain: MNDNKYSQKIKELMKEMTLEEKVSLLSGKDFWSTKAIDRLKIDSVYLTDGPHGVRKQSTESDELSLQKSVSSTCFPTACCSACSFDPNIMYEMGEAISREAKANKVSVVLGPGVNIKRSPLCGRNFEYFSEDPYLAGKMASGWINGLEDNGIQSSLKHFAANNQETLRLIIDSVVDERALREIYLYAFEIAVKEAKPSTVMCAYNSVNGTFASENKYLLTDILRDEWGFDGIVVSDWGAVNDRVEALKAGLDLQMPSTNGEDDRKVYNAVKETIIDEKILDKAVERLLYFSLYSMDNIYDNFDYDKEEHHNIARKIAENSIVLLKNQDKILPAKKESKIAVIGEFAQKPRYQGNGSSLINAYKIDTAEEYFKENNIEFDYAKGYDSNSADIDNALIEEAVNISKDKDIVIIFAGLINSYESEGFDRKHLNLPENHNHLIEEISKVNKNVVVVLSIGAPVLMPWIDKVKGVLNLYLAGEAAVSAAFNIIFGVVNPSGKLAESFPLSLEDNPSYKYFPGGNKAVEYRESIFVGYRYYDKAQKNVLFPFGFGLSYTTFQFSNLIVSDANTIAGLDNIHVVFDIKNTGDVFGCEVAQVYISAPENNVFKPHKELKSFIKVFLEPGETKTVILKLNKRSFSFYNADTKQYEIESGVYTIYIGNSSRNLLLSKTMEINSINYYQKRIDNYFNFKEINISDNEFQQLLGRKLKPINIKASKPYHLNNNLSDLLDNNIAKEFYNKLLSGLNDMFKDDKTDTKKMFESMMLETPLRSLHTMSGGIITREDVENLINTLNK
B3: 814 (protein, listed as Bifidobacterium reuteri)
chain: MSETNATPTYPSVKDLTLEEKASLTSGGDAWHLQSVEHKGIPGYMITDGPHGLRKSLASNTSETDLNDSVPATCFPPAAGLSSSWNPALIRKVGEVMGEECVQEKVAVILGPGVNIKRNPLGGRCFEYWSEDPYLAGHEAVGIVEGVQSKGVGTSLKHFAANNQETDRLRVDARISQRALREIYLPAFEHIVKTAQPWTIMCSYNRINGVHSAQNHWLLTDVLRDEWGFKGIVMSDWGADHDRVASLNAGLNLEMPPSYTDDQIVYAARDGRIDPAQLDRMAQGMIDLTNKARAAMSIDGYRFDVDAHDEVARQAAVESIVMLKNEDAILPIDPAGGKKLAVIGEFARTPRYQGGGSSHITPTKMTSFLDALDERGIKADFAPGFTLDLAPADSALTLEAVETARDADVVLMFLGLPEEAESEGFDRTTLDIPAKQIELLRQVAAENPNVVVVLSNGSVVTVHPWADASKSILESWLLGQAGGRALADVVFGEASPSGKLAQSIPMDINDDPSMLNWPGEEGHVDYGEGVFVGYRYYDTYNKAVDYPFGYGLSYATFEIGDVAVAKTGANTASVTATVTNTSDTPAAETVQVYVAPGKADVARPVHELKGFEKVFLGAGESKTVTIELNERAFAYWSEKYNDWHVEAGEYTVEVGVSSRDIAASIAVTLDGDGKSMPLNEWSTFGEWSADPVGAKVVEAVGAAGERGDMPKLPDNDMMRLFLNSMPINSLPTLLGESGKDLTAFMLDEYAALTK
B4: 838 (protein)
chain: MSEHTYPSVKDLTLEEKASLTSGGDAWHLQGVEAKGIPGYMITDGPHGLRKSLATSTGETDLDDSVPATCFPPAAGLSSSWNPSLVRKVGEAMGEECIQEKVAVILGPGVNIKRNPLGGRCFEYWSEDPYLAGHEAVGIVEGVQSKGVGTSLKHFAVNNQETDRLRVDARVSQRALREIYLPAFEHIVKTAQPWTIMCSYNRVNGVHSAQNRWLLTDVLRDEWGFKGIVMSDWGADHDRVASVNAGLNLEMPPSGTDDEIVYAARDGRIDPAQLDRMAQGMIDLTDKARAAMSIDGYRFDVDAHDEVAHQAAVESMVLLKNEDAILPLKKDAKIAVIGEFARTPRYQGGGSSHITPTKMTSFLDTLAERGIKADFAPGFTLDLDPADSALELEAVETARDADVALLFLGLPEAAESEGFDRETLDMPAKQIELLAKVAAVNPNVAVVLSNGSVVSVAPWAGNAKGILESWLLGQAGGPALADVIFGEASPSGKLAQSIPLDINDDPSMLNWPGEEGHVDYGEGVFVGYRYYDTYDVAVDYPFGYGLSYASFEISDVHAEKTGANTASVTATVANVSDVDGAETVQVYVAPGKAEVARPSHELKGFAKVFLKAGESKTVTFDLDGRAFAYWSEKYGDWHIEAGAYGIEVGTSSRDIAATATVELEGDGKSLPLDEWSTYGEWEADPVGARVVAAVEAAGESGTLPKLPDNTMMRIFLKSMPINSMPMLMSDGGRRITAFMLDEYAKLTK
modifications: Bifidobacterium stellenboschense
B5: 808 (protein, listed as Microbacterium lemovicicum)
chain: MTTESTVATSDATSHLLPLLAQLTLAQKAAFVQGADFWATVPLPEIGVRSMTLSDGPAGVRGPRWDEREPSLNLPSGSALAASWDIDLAYRYGAAAASEARRKGVDVVLGPTINLHRSPLGGRHFECFSEDPELTAELGAAYVRGLQDNGVAATPKHYVANDSETDRFTVDVRVDERALRELYLAPFERAVEAGTWSVMSAYNSVDGVTMTENDLLETPLNSEWGFDGVVVSDWTAVRSLDAVAASQDLAMPGPAPAWADLVAAVEDGRVSEADLDRKVLRMLLLAERVGALEGAPGIEPAPVDGVAFTREAAVEGTVLLTNDGTLPLDAAALRSVAVIGHNALEARTQGGGSATVLPEHVVSPLEGLRTALPDAAVSYEIGAVVQEGVAELPLEQLQNTVTGEPGLRVSFFDADGLELFTEDRRSTALVWFGGDAPIAASSSVVLETVYTPAETGEIQLGFAGANPGRVSIDGVEVLAETPLIEGTDLGAAFLNPPSSTAAVRAEAGRPLRLRAEFALSSGGPLAGALSVTLGIAPETTDPDELIARAAAAAASADVAVVVVGTNSKVESEGYDRVDLDLPGRQDDLVRAVAATGTPTIVVVNAGSPVVLPWAGEVAAVVQGYFGGQEFGSAVAAVLTGAAEPGGRLPTTWPAALADVPVTDVAPQDGVLAYTEGIHIGYRAWLRADAAPAFPFGHGLGYTTWSWGAVQRDGDALDVTLANTGARAGKQVVQVYAERADSTVERPVRWLVGFATVRAEAGQTVTATIPLPARRFAHWSDGWQVEGGAFTLRAGASVADLPLTMEWSIGD
B6: 885 (protein, listed as Bifidobacterium indicum)
chain: MTTDKHLQAKDLDIEKEASLTSGSDAWHLQGVPDQGYPEYMITDGPYGLRKATGSDVYGSVPATCFPPTAGLASSWNPDLTYQVGQAMGEECIQEEVAVILGPGINIKRSPLGGRNFEYYSEDPVLAGHQAAGLVDGVQSKGVGTSLKHFAANNQETDRLRVSSDIDERTLREIYLPAFEYVVKHAKPWTIMCAYNKLNGVYGSENRWLLTDVLRGEWGYQGLVMSDWGAVHDRAAALRAGLNLEMPPSASDHEVVEAVRAGNLDKDQLDRMAQGVLDLIEKAKPAMSQKGYRYDVEAHDQVARQAAQESIVMLKNEDGVLPLAPGEKVALIGEFARTPRYQGGGSSHITPTKVTTALDSFKETGMDVDFVPGFTLDEAPQDQSLTDQAVKAAADADKVVLFLGLPEDAESEGFDRTDIDLPTKQLDLLRAVSQVNDQVVVVLSNGSVVSVVDWLPQAKAVLESWLLGQAGGQAVVDILTGGANPSGRLPETIPVRLEDNPSITSFPGEEGHSRYGEGIYVGYRYYDTFNKPVAFPFGFGLSYSTFEISNVRVEKTGPNAVRVDLTVTNTSGIDGAETVQVYVAPCASKVGRPSHELKSFAKVFLKAGESQEISLDLDERDFAYWSTAMNEWHVEAGTYGIEVGTSSRDLVSKLDVDLDGDGLFVRLNSNSTMEEWREDQVGGPIMKSHVEGGKVPLPNDPNTAKLFDSMPLASVITLSGGDGNSVVADMITDYQKAIEQQGLTGASRGSE

Where only a bound is given, the exact number is not on record here.

The nature of the first assay: Experiment 5-2: screening of additional glucosidases for deglycosylation with QS-18 in crude bark extract (80%) at pH 6 and 35 deg C. Type of assay: biochemical, Quillaja saponaria. Conditions: CBE 80%, pH 6, 35 deg C, 18 hours; UV HPLC. On the procedure: A plate was lysed at pH 6 as described in Experiment 4-2. 40 uL of clarified lysate was transferred to a reaction plate
The pH of CBE was adjusted to pH 6 by dropwise addition of 2M NaOH with stirring. 160 uL of pH 6 CBE was added to each well of the reaction plate. The reaction plate was sealed and incubated at 35 deg C. with shaking for 18 hours.
The reaction plate was quenched by adding 200 uL of MeCN (2% acetic acid (AcOH), 1 mg/mL hexanophenone) to each well of the plates. The quenched reaction plate was re-sealed and incubated at 20 deg C. with shaking for 10 min. The reaction plate was then centrifuged (10 min, 4 degC).
200 uL was transferred from each well of the quenched plate to the corresponding wells of a fresh 96 well plate and sealed. The plate was analysed by UV HPLC with the method of Experiment 4-4.
As to B1, the “Experiment 5-2 % conv” value is <0.5%.
B2: the “Experiment 5-2 % conv” value is <0.5%.
B3: the “Experiment 5-2 % conv” value is reported as <0.5%.
Take B4: the “Experiment 5-2 % conv” value is <0.5%.
Still for that read-out and setting: the value for B5 was <0.5%; that for B6 was <0.5%.

The nature of another assay: Experiment 5-3: screening of additional glucosidases for deglycosylation with QS-18 in treated bark extract (80%) at pH 6 and 35 deg C. Format: biochemical, Quillaja saponaria. The note with it: TBE 80% (QS-21 approx. 4 g/L), pH 6, 35 deg C; UV HPLC. The method, then: Experiment 5-1 was repeated, replacing CBE with Treated Bark Extract (TBE) at pH 6. TBE was prepared from CBE by PVPP treatment and concentration, to provide TBE with a QS-21 concentration of approximately 4 g/L. TBE was adjusted to pH 6 by dropwise addition of 2M NaOH with stirring.
Consider B1, for which the “Experiment 5-3 % conv” value is recorded as <0.5%.
On the same count and under the same terms, the value for B2 was <0.5%; that for B3 was <0.5%; that for B4 was <0.5%.
On the same count and under the same terms, next, B5: <0.5%; B6: <0.5%.

The next assay can be described thus: Experiment 5-1: screening of additional glucosidases for deglycosylation with purified QS-18 (0.04 mg/ml) at pH 7.5 and 30 deg C. Type of assay: biochemical, Quillaja saponaria. Conditions: pH 7.5, 30 degrees C, 18 hours, LCMS/MS. On the procedure:
The 94 additional genes, together with positive control (DNA encoding SEQ ID No. 262) and negative control, were transformed, expressed, lysed and reacted in the same manner as described above for Experiment 4-1, except the reaction was incubated at 30 degrees C. for 18 hours.
Samples were analysed by LCMS/MS according to the procedure in Experiment 4-1.
Regarding B1, the “Experiment 5-1 % conv” value was determined as 52.3%.
On the same count and under the same terms, the value for B2 was 55.5%; that for B3 was 58.4%; that for B4 was 53.4%.
Consider B5, for which the “Experiment 5-1 % conv” value worked out at 52.0%.
With B6, the “Experiment 5-1 % conv” value was 54.8%.
